From patent publication US20260258121A1, “USES OF POMC-SPECIFIC ANTIBODY AND MARCHF6” (KOREA UNIVERSITY RESEARCH AND BUSINESS FOUNDATION, priority 2023, published 2026)

T1: GST-POMC fragments (Homo sapiens, UniProt P01189)
T1 construct: purified GST, GST-POMC^1-76, GST-POMC^27-76, or GST-POMC^1-26 was incubated with 50 μl of glutathione Sepharose beads; made in house; Marchf63f came from an extract of transfected HEK293T cells
T1 sequence (P01189 1-76): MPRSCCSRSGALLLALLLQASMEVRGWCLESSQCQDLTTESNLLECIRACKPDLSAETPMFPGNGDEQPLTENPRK

T2: GST-POMC fragments (Homo sapiens, UniProt P01189)
T2 construct: purified GST, GST-POMC^1-76, GST-POMC^27-76, or GST-POMC^1-26 was incubated with 50 μl of glutathione Sepharose beads; made in house; Marchf63f came from an extract of transfected HEK293T cells
T2 sequence (P01189 1-26): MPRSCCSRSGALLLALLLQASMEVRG

T3: GST-POMC fragments (Homo sapiens, UniProt P01189)
T3 construct: purified GST, GST-POMC^1-76, GST-POMC^27-76, or GST-POMC^1-26 was incubated with 50 μl of glutathione Sepharose beads; made in house; Marchf63f came from an extract of transfected HEK293T cells
T3 sequence (P01189 27-76): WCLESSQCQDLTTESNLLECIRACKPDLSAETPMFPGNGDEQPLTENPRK

T4: POMC (Homo sapiens, UniProt P01189)
T4 construct: expressed in transfected cells; host or cells: HEK293T
T4 sequence (P01189 1-267): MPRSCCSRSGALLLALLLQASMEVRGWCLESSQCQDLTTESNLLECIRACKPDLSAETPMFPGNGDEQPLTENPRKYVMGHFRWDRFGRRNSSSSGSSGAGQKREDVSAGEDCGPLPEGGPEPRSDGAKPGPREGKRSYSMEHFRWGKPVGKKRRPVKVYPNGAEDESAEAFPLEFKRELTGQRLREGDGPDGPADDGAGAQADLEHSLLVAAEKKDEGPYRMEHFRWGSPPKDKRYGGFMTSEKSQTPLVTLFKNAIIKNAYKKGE

B1: Marchf63f: wild-type C-terminal triple flag-tagged Marchf6 (membrane associated ring-CH-type finger 6), expressed from pCH879 (protein, UniProt Q6ZQ89 1-909, looked up)
E3 ubiquitin-protein ligase …: MDTAEEDICRVCRSEGTPEKPLYHPCVCTGSIKFIHQECLVQWLKHSRKEYCELCKHRFAFTPIYSPDMPSRLPIQDIFAGLVTSIGTAIRYWFHYTLVAFAWLGVVPLTACRIYKCLFTGSVSSLLTLPLDMLSTENLLADCLQGCFVVTCTLCAFISLVWLREQIVHGGAPIWLEHAAPPFNAAGHHQNEAPVGGNGAENPAADQPANPAGENAVLGENPDAQDGQAEEEEEDNEEEDDAGVEDAADANNGAQDDMNWNALEWDRAAEELTWERMLGLDGSLVFLEHVFWVVSLNTLFILVFAFCPYHIGHFSLVGLGFEEHVQASHFEGLITTIVGYILLAITLIICHALATLVKFHRSRRLLGVCYIVVKVSLLVVVEIGVFPLICGWWLDICSLEMFDATLKDRELSFQSAPGTTMFLHWLVGMVYVFYFASFILLLREVLRPGVLWFLRNLNDPDFNPVQEMIHLPIYRHLRRFILSVIVFGSIVLLMLWLPIRIIKSLLPNFLPYNVMLYSDAPVSELSLELLLLQVVLPALLEQGHTRQWLKGLVRAWTVTAGYLLDLHSYLLGDQEENENSANQQVNNNQPARNNNAVPAGEGLHAAHQAILQQGGPVGFQPYRRPLNFPLRIFLLIVFMCITLLIASLICLTLPVFAGRWLMSFWTGTAKIHELYTAACGLYVCWLTIRAVTVLVAWMPQGRRVIFQKVKEWSLMIMKTLIVAVLLAGVVPLLLGLLFELVIVAPLRVPLDQTPLFYPWQDWALGVLHAKIIAAITLMGPQWWLKTVIEQVYANGIRNIDLHYIIRKLAAPVISVLLLSLCVPYVIASGAVPLLGVTAEMQNLVHRRIYPFLLMVVVLMGILSFQVRQFKRLYEHIKNDKYLVGQRLVNYERKSGKQGPSTPPPVSSQE
modifications: C-terminal triple FLAG tag
notes: wild-type C-terminal triple flag-tagged Marchf6 (membrane associated ring-CH-type finger 6), expressed from pCH879

Legend:
[1] = test system: POMCha-overexpressing Marchf6-KO N43/5 cells; test: Cell viability (CellTiter-Glo) of POMCha-overexpressing Marchf6-KO N43/5 cells; type: cell-based, mouse
Procedure: To understand the functional or mechanistic association between Marchf6-mediated POMC degradation and ferroptosis, lipid ROS levels were compared in N43/5 cells overexpressing POMCha using a lipid peroxidation sensor C11-BODIPY^581/591. Specifically, WT or Marchf6-KO N43/5 cells were transfected with pCH4129 (POMCha) for 48 hours, and the medium was replaced with a culture medium containing 2 μM C11-BODIPY^581/591 (Thermo Fisher Scientific, D3861). The cells were incubated at 37° C. for 30 minutes, and the fluorescent probe-treated cells were trypsinized, transferred to a 15 ml Falcon tube, washed three times with 1 ml of ice-cold PBS, and then transferred to an ice-cold round-bottom polystyrene tube (Corning, 352235). The amount of intracellular lipid ROS in […] was measured using CytoFLEX LX (Beckman Coulter) using fluorescein isothiocyanate (FITC) and analyzed using FlowJo v10.8.1 (BD Bioscience). In addition, cell viability was analyzed using a CellTiter-Glo luminescent 3D cell viability assay kit (Promega, G9241) and a multimode plate reader (TECAN, Spark 10 M). At this time, when the inhibition of cell death was evaluated, WT or Marchf6-KO N43/5 cells expressing pCH60 (empty vector) or pCH4129 (POMCha) (final concentration of […] each) were treated with 5 μM Fer-1, 20 μM Z-VAD-FMK or 40 μM Nec-1, and incubated for 24 hours, and cell viability was analyzed. In addition, the intracellular NADP(H) level was measured using a NADP/NADPH-Glo assay kit (Promega, G9081) and a multimode plate reader (TECAN, Spark 10 M). Further, LDH activity was measured using the Cytotoxicity Detection Kit Plus (LDH) (Sigma, 4744926001).
Through Examples, since Marchf6 mediated the degradation of POMC, it was expected that loss of Marchf6 would make POMC neurons hypersensitive to POMC-induced ferroptosis. Therefore, pCH60 (empty vector), pCH879 (Marchf63f), pCH880 (Marchf6flag^C9A), or pCH4170 (Marchf6flag^P460A) was transfected into WT or Marchf6-KO N43/5 cells, and the degree of ferroptosis induction in POMC neurons was analyzed as in Example 6-1.

4-hydroxynonenal (4HNE) = test: Immunoblotting of 4-HNE in POMCha-overexpressing N43/5 cells; type: cell-based, mouse; conditions: Fer-1 5 μM, 24 h
[2] = test system: Gpx4, CHOP, Nox2, and Nox4; test: Immunoblotting of Gpx4, CHOP, Nox2 and Nox4 in POMCha-overexpressing Marchf6-KO N43/5 cells; type: cell-based, mouse
GST-POMC fragments [3] = molecular target: T1, GST-POMC fragments; test: GST pull-down assay; type: binding; conditions: extract of HEK293T cells expressing Marchf63f
Procedure: (§1) To clarify a POMC domain binding to the C4 domain of Marchf6, a Y2H assay was performed using a set of POMC fragments in which the C4 of Marchf6 and the C-terminus (Ct-) of POMC were cleaved. To this end, pCH4540 (C4), pCH4132 (POMC), or cleaved forms thereof pCH4235 (POMC^1-76), pCH4236 (POMC^1-87), pCH4237 (POMC^1-102), pCH4238 (POMC^1-137), and pCH4239 (POMC^1-176) were co-transformed into CHY726 and spotted on a SC(-Leu/-Trp) or SC(-Leu/-Trp/-His) plate and analyzed as in Example above. In addition, for interaction analysis between full-length Marchf6 and POMC, a split-Ub assay was performed by transforming S. cerevisiae CHY712 with pCH836 (Marchf6) or pCH4311 (Marchf6^P460A) as bait and pCH4203 (POMC^1-267), pCH4204 (POMC^77-267), or pCH4313 (POMC^1-76) as prey. In addition, for glutathione-S-transferase (GST) pull-down assay, […] of purified GST, GST-POMC^1-76, GST-POMC^27-76, or GST-POMC^1-26 was incubated with 50 μl of glutathione Sepharose beads (Cytiva, 17-0756-05) at 4° C. for 2 hours.
(§2) HEK293T cells transfected with pCH879 (Marchf63f) were lysed with a lysis buffer (50 mM Tris-HCl, 150 mM NaCl, 1 mM EDTA, 1% NP-40, pH 7.6) containing 1× protease inhibitor cocktail to obtain an extract, and the extract and the beads were further incubated at 4° C. for 2 hours, and then washed three times with 0.5 ml of GST-wash buffer (20 mM Tris-HCl, 137 mM NaCl, 2 mM EDTA, 0.5% NP-40, 10% glycerol, pH 7.6). Proteins binding to the beads were eluted with a 2× SDS-sample buffer, heated at 37° C. for 20 minutes, subjected to SDS-PAGE, Coomassie blue staining, and immunoblotting using anti-flag antibody.

GST-POMC fragments [4] = molecular target: T2, GST-POMC fragments; test: GST pull-down assay; type: binding; conditions: extract of HEK293T cells expressing Marchf63f; remark: listed apart in the source
Procedure: as §1, §2

GST-POMC fragments [5] = molecular target: T3, GST-POMC fragments; test: GST pull-down assay; type: binding; conditions: extract of HEK293T cells expressing Marchf63f; remark: listed apart in the source
Procedure: as §1, §2

POMC = molecular target: T4, POMC; test: Chemical crosslinking-based reciprocal co-immunoprecipitation assay in HEK293T cells; type: binding; conditions: DSP crosslinking
Procedure: For the chemical crosslinking-based reciprocal co-immunoprecipitation assay, HEK293T cells were incubated at […] in a 10-cm dish plate and co-transfected with […] of pCH60 (empty vector) or pCH4129 (exogenous C-terminally hemagglutinin (ha)-tagged POMC: POMCha) and pCH879 (wild-type C-terminal triple flag-tagged Marchf6: Marchf63f) or pCH4170 (Marchf6^P460A) and incubated for 48 hours. The cells were washed with PBS, treated with 1 mM DSP [dithiobis(succinimidyl propionate)] (Thermo Fisher, 22585), and then the crosslinked cells were lysed and immunoprecipitated. The beads were washed three times with an IP-wash buffer (20 mM Tris-HCl, 137 mM NaCl, 0.1% NP-40, 2 mM EDTA, 10% glycerol) and bound proteins were eluted with a 2× SDS sample buffer. For immunoprecipitation with FLAG-agarose (Sigma-Aldrich, A2220), a 3× FLAG peptide (Protein Ark, GEN-3XFLAG-5) was used. Thereafter, the eluate was denatured and heated at 37° C. for 20 minutes, and SDS-PAGE and immunoblotting were performed using the corresponding antibody.

| Molecule | decreased viability of POMCha-overexpressing Marchf6-KO N43/5 cells, effect of treatment ([1]; 5 μM Fer-1, 24 hours) | level of 4-hydroxynonenal (4HNE) increased by overexpression of POMCha, effect of treatment (4-hydroxynonenal (4HNE)) | reduced viability of POMCha-overexpressing Marchf6-deficient N43/5 cells, effect of ectopic expression ([1]; ectopic expression by transfection) | expression levels of Gpx4, CHOP, Nox2, and Nox4 proteins, effect of expression of construct [2] | binding to GST-POMC^1-76 (GST-POMC fragments [3]) | binding to GST-POMC^1-26 (GST-POMC fragments [4]) | binding to GST-POMC^27-76 (GST-POMC fragments [5]) | binding of full-length POMC (co-immunoprecipitation) (POMC) |
| --- | --- | --- | --- | --- | --- | --- | --- | --- |
| CCOC(=O)c1ccc(NC2CCCCC2)c(N)c1 [Fer-1, ferrostatin-1, reference compound] | restored | restored | – | – | – | – | – | – |
| B1 | – | – | restored | restored | directly bound | hardly bound | very weakly bound | specifically bound |
